In assay [1] the target is T1, endogenous mouse GIPR (mouse (endogenous in primary mouse adipocytes and Neuro-2a cells)) (UniProt Q0P543).
T1 sequence: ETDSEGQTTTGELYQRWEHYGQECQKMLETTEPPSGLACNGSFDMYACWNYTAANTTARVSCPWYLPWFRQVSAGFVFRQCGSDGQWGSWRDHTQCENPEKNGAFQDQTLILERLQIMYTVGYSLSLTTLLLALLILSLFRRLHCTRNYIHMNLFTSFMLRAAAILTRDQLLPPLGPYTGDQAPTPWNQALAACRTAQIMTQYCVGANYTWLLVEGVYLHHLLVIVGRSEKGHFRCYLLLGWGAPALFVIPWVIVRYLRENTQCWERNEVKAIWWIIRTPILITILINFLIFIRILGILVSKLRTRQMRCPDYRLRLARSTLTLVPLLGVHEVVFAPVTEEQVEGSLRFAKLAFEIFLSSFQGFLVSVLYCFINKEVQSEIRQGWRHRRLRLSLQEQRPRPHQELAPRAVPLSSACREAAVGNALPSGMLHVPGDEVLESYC

For assay [2], the target named is T1, endogenous mouse GIPR (mouse (endogenous in primary mouse adipocytes and Neuro-2a cells)). This is another data set of the same source.
The target of assay [3] is T2, endogenous rat GIPR in INS1 832/13 cells (rat (endogenous in INS1 832/13)) (UniProt P43219).
T2 sequence: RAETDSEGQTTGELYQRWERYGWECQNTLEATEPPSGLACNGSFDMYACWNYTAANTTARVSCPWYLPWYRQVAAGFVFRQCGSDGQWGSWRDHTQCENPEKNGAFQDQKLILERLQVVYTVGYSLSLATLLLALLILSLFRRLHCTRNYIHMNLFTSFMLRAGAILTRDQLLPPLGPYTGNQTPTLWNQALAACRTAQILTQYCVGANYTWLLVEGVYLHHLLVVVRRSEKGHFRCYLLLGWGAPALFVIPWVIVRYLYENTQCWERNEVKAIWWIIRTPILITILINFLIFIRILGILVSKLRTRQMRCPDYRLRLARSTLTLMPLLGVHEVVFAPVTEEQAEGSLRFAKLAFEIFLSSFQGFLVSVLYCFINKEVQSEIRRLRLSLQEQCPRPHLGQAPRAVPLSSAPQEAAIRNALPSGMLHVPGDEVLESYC

With YAEGTFISDYSIAMDKIRQQDFVNWLLAQRGKKSDWKHNITQ (ligand) [mouse GIP], in assay [1], the EC50 of cAMP production in mouse primary adipocytes differentiated in vitro was found to be 3.8 nM and the EC50 of glycerol release (lipolysis) from primary mouse adipocytes differentiated in vitro is 13 nM. For the same molecule, in assay [2], the EC50 of cAMP production in mouse Neuro-2a neuroblastoma cells came out at 6.35 nM.
Consider YAEGTFISDYSIAMDKIRQQDFVNWLLAQKGKKNDWKHNLTQ (ligand) [rat GIP], for which the EC50 of cAMP production in rat INS1 832/13 cells in assay [3] was 0.99 nM.

Source of the values: article PMC7536395.
